In publication PMC5959753 one finds Km and kcat data, which are given here for one protein.

Substrate in the data set: C[N+](C)(C)[C@@H](Cc1cnc([S+]([O-])C[C@H](N)C(=O)O)[nH]1)C(=O)[O-]
In words: purified protein. The conditions noted are these: pH 8.0, 25 °C, 1 mM DTT.

B1: Egt2 (Neurospora crassa OR74A) (protein)
chain: MVATTVELPLQQKADAAQTVTGPLPFGNSLLKEFVLDPAYRNLNHGSFGTIPSAIQQKLRSYQTAAEARPCPFLRYQTPVLLDESRAAVANLLKVPVETVVFVANATMGVNTVLRNIVWSADGKDEILYFDTIYGACGKTIDYVIEDKRGIVSSRCIPLIYPAEDDDVVAAFRDAIKKSREEGKRPRLAVIDVVSSMPGVRFPFEDIVKICKEEEIISCVDGAQGIGMVDLKITETDPDFLISNCHKWLFTPRGCAVFYVPVRNQHLIRSTLPTSHGFVPQVGNRFNPLVPAGNKSAFVSNFEFVGTVDNSPFFCVKDAIKWREEVLGGEERIMEYMTKLAREGGQKVAEILGTRVLENSTGTLIRCAMVNIALPFVVGEDPKAPVKLTEKEEKDVEGLYEIPHEEANMAFKWMYNVLQDEFNTFVPMTFHRRRFWARLSAQVYLEMSDFEWAGKTLKELCERVAKGEYKESA
By Km is commonly meant the concentration of substrate that gives half-maximal velocity. Usually kcat stands for the maximal rate divided by the concentration of active sites. With B1, the Km came out at 155 ± 10 µM and the kcat was found to be 8.7 ± 0.1 s⁻¹.
